Reference: US20150104459A1

B1: TCN-537 (3194_D21) (antibody, V domains shown)
VH: QVQLQQWGSGLLKPSETLSLTCAVYGGSFRDDYWTWIRQPPGKGLEWIGEINHSGRTNYNPSLKSRVTISVDTSLKQFSLKVISVTAADTAVYYCARGTSHVSRYFDWLPPTNWFDPWGQGTQVTVSS
VL: DIVLTQSPGTLSLSPGERATLSCRASQSVSSSYLAWYQQKPGQAPRLVMYGAATRATGIPDRFSGSGSGPDFTLTISRLEPEDFAMYYCQQYGNSPITFGQGTRLEIK
B2: TCN-544 (5082_A19) (antibody, V domains shown)
VH: QVQLQESGPGLVKPSETLSLTCTVSRGSIGHYFWSWIRQPPGKGLEWIGYISYSGSTKYNPSLRSRVTISVDTSKNQFSLNLNSVTATDTALYYCAREDYDILTGAGPGMEVWGQGTTVTVSS
VL: QSMLTQPPSASGTPGQRVTISCSGSSSNIGSNTVNWFKHLPGTAPKLLIYRNDLRPSGVPDRFSGSKSGTSASLAISGLQSEDEADYYCATWDDSLNGFYVFGTGTKVTVL
B3: TCN-548 (5092_P01) (antibody, V domains shown)
VH: QVQLQESGPGLVKPSETLSLTCTVSSGPMSDYYWSWIRQPPGKGLEWIGHVSVSHGGRTKSNPSVMSRVTISVETSKNQFSLKLTSVTAADTAVYYCARLNYYDRSGYHSPDGPSNNWFDPWGQGTLVTVSS
VL: not shown
B4: TCN-549 (5092_P04) (antibody, V domains shown)
VH: QVQLVQSGAEVKKPGASVKVSCKASGYTFTGYYMHWVRQAPGQGLEWMGWINPNSGDTNYAQKFQGRVTMTRDTSITTAYMELSSLRSDDTAVYYCARDSPYSSSWSFFDYWGQGPLVTVSS
VL: not shown
B5: TCN-552 (5249_I23) (antibody, V domains shown)
VH: QVQVVQSGAEVKKPGSSVRVSCQASGGTFMNYAIIWVRRAPGQGLEWMGGIIPVFPTPNYAQMFQGRVTISTDESRSTSFLELTNLRYEDTAVYYCARRIYHGGNSGFDFWGQGTLVTVSS
VL: EIVLTQSPATLSLSPGERATLSCRASQSVGNYLAWYQQKPGQAPRLLIYDSSNRAPGIPARFSGSGSGTDFTLTISSLAPEDFAVYYCQQRSKWPPMYSFGHGTKLEIK
B6: TCN-553 (5261_C18) (antibody, V domains shown)
VH: QVQVVQSGTEVKKPGSSVKVSCQTSGGRFMSYAITWVRQAPGQGLEWMGGIVPVFGTANYAQKFQGRVTITTDDSTRTAYMELSSLRSEDTAVYYCGFRYGSGYGFDSWGQGTLVTVSS
VL: EIVLTQSPGTLSLSPGERATLSCRASQSVSSSYLAWYQKKPGQAPRLLIYGASTRATGIPDRFTGSGSGTDFTLSISRLEPEDFAVYYCQHFGTSVFTFGGGTKVEIK
B7: TCN-563 (5237_B21) (antibody, V domains shown)
VH: QVQLAQSGAEVKRPGSSVKVSCTASGGIFRKNAISWVRQAPGQGLEWMGGIIAVFNTANYAQKFQGRVKITADESGNTAYMELSSLRSDDTAVYYCASHPKYFYGSGSYPDFWGQGTLVTVSS
VL: QSALTQPRSVSGSPGQSVTISCTGSSSDVGASNSVSWYQQHPGKAPKLVIYDVTERPSGVPHRFSGSKSGNTASLTVSGLQPEDEADYFCCAYGGKYLVVFGGGTKVTVL
B8: TCN-530 (5248_H10a) (antibody, V domains shown)
VH: QVQLVQSGAEVRKPGSSVKVSCKASGGPFMSYAIGWVRQAPGQGLEWMGGINPVFGRPHYAQKFQGRVTIATDDSTKTSYMELSSLTSEDTGMYYCASRYSRSSPGTFESWGQGTLVTVSS
VL: EIVMTQFPATLSVSPGERVTLSCRASQSVSNNLAWYQQKPGQPPRLLIYDASTRATGVPAKFSGTGSGTEFTLSISSLQSEDFAVYYCQQYHNWPPSYSFGLGTKLEIK
B9: TCN-532 (5262_H18) (antibody, V domains shown)
VH: QVQLQESGPGLVKPSETLSLTCTVSGGSVSSETYYWSWIRQPPGKGLEWIGYIYYIGNTDYRPSLKSRVTISLDTSKNQFSLKLSSVTAADTAVYYCARGAYYDSSGYPAFYIWGQGTMVTVSS
VL: QSVLTQPPSVSGAPGQRVTISCTGSSSNIGSDYDVHWYKQLPGTAPKLLIFGNSNRPSGVPDRFSGSKSGTSASLAITGLQAEDEADYYCQSYDSSLSGFHVFGSGTKVTVL
B10: TCN-536 (5095_N01) (antibody, V domains shown)
VH: QVQLQQWGAGLLKPSETLSLTCAVYGGSFSVSGYYWSWIRQPPGRGLEWIGEISHGGSTNYNPSLKSRVTISVDTTKNQFSLRLSSVTAADTAVYYCARGTDPDTEVYCRVGNCAAFDYWGQGSLVTVSS
VL: EIILAQSPGTLSLSPGERATLSCRASQFVSTRSLAWYQQRPGQAPRLLIYGASSRATGIPDRFSGSGSGTDFTLTISRLEPEDFAVYYCQHYGYSPRYAFGQGSKVEIK

How the values were obtained:
Details in all cases: remark: other sources report otherwise
[1] = target: recombinant soluble homotrimeric HA of A/California/4/09 (H1N1) (Influenza A virus A/California/04/2009 (H1N1)); assay: HA microarray, BCC supernatant
[2] = target: recombinant soluble homotrimeric HA of A/swine/Ontario/01911-2/99 (H4N6) (Influenza A virus A/Swine/Ontario/01911-2/99 (H4N6)); assay: HA microarray, BCC supernatant
[3] = target: recombinant soluble homotrimeric HA of A/Wisconsin/67/05 (H3N2) (Influenza A virus A/Wisconsin/67/2005 (H3N2)); assay: HA microarray, BCC supernatant
[4] = target: recombinant soluble homotrimeric HA of A/chicken/Vietnam/NCVD-016/08 (H5N1) (Influenza A virus A/chicken/Vietnam/NCVD-016/2008 (H5N1)); assay: HA microarray, BCC supernatant
[5] = target: recombinant soluble homotrimeric HA of A/duck/Yangzhou/02/2005 (H8N4) (Influenza A virus A/duck/Yangzhou/02/2005 (H8N4)); assay: HA microarray, BCC supernatant
[6] = target: recombinant soluble homotrimeric HA of A/Indonesia/5/05 (H5N1) (Influenza A virus A/Indonesia/5/2005 (H5N1)); assay: HA microarray, BCC supernatant
[7] = target: recombinant soluble homotrimeric HA of A/northern shoveler/California/HKWF115/2007 (H6N1) (Influenza A virus A/northern shoveler/California/HKWF115/2007 (H6N1)); assay: HA microarray, BCC supernatant
[8] = target: recombinant soluble homotrimeric HA of A/Japan/305/57 (H2N2) (Influenza A virus A/Japan/305/1957 (H2N2)); assay: HA microarray, BCC supernatant
[9] = target: recombinant soluble homotrimeric HA of A/Egypt/3300-NAMRU3/08 (H5N1) (Influenza A virus A/Egypt/3300-NAMRU3/2008 (H5N1)); assay: HA microarray, BCC supernatant
[10] = target: recombinant soluble homotrimeric HA, A/Hong Kong/156/97 (H5N1) (influenza A virus A/Hong Kong/156/97 (H5N1)); assay: microarray, trimeric HA, transfection supernatant
[11] = target: recombinant soluble homotrimeric HA, A/duck/Yangzhou/02/2005 (H8N4) (influenza A virus A/duck/Yangzhou/02/2005 (H8N4)); assay: microarray, trimeric HA, transfection supernatant
[12] = target: recombinant soluble homotrimeric HA, A/chicken/Vietnam/NCVD-016/08 (H5N1) (influenza A virus A/chicken/Vietnam/NCVD-016/2008 (H5N1)); assay: microarray, trimeric HA, transfection supernatant
[13] = target: recombinant soluble homotrimeric HA of A/Solomon Islands/3/06 (H1N1) (Influenza A virus A/Solomon Islands/3/2006 (H1N1)); assay: HA microarray, BCC supernatant
[14] = target: recombinant soluble homotrimeric HA, A/northern shoveler/California/HKWF115/2007 (H6N1) (influenza A virus A/northern shoveler/California/HKWF115/2007 (H6N1)); assay: microarray, trimeric HA, transfection supernatant
[15] = target: recombinant soluble homotrimeric HA of A/Vietnam/1203/04 (H5N1) (Influenza A virus A/Vietnam/1203/2004 (H5N1)); assay: HA microarray, BCC supernatant
[16] = target: recombinant soluble homotrimeric HA of A/Anhui/1/05 (H5N1) (Influenza A virus A/Anhui/1/2005 (H5N1)); assay: HA microarray, BCC supernatant
[17] = target: recombinant soluble homotrimeric HA, A/Anhui/1/05 (H5N1) (influenza A virus A/Anhui/1/2005 (H5N1)); assay: microarray, trimeric HA, transfection supernatant
[18] = target: recombinant soluble homotrimeric HA of A/Netherlands/219/03 (H7N7) (Influenza A virus A/Netherlands/219/03 (H7N7)); assay: HA microarray, BCC supernatant

Binder	Trimeric HA Binding RLU [1] [RLU]	Trimeric HA Binding RLU [2] [RLU]	Trimeric HA Binding RLU [3] [RLU]	Trimeric HA Binding RLU [4] [RLU]	Trimeric HA Binding RLU [5] [RLU]	Trimeric HA Binding RLU [6] [RLU]	Trimeric HA Binding RLU [7] [RLU]	Trimeric HA Binding RLU [8] [RLU]	Trimeric HA Binding RLU [9] [RLU]	Trimeric HA Binding RLU [10] [RLU]	Trimeric HA Binding RLU [11] [RLU]	Trimeric HA Binding RLU [12] [RLU]	Trimeric HA Binding RLU [13] [RLU]	Trimeric HA Binding RLU [14] [RLU]	Trimeric HA Binding RLU [15] [RLU]	Trimeric HA Binding RLU [16] [RLU]	Trimeric HA Binding RLU [17] [RLU]	Trimeric HA Binding RLU [18] [RLU]
B1	21900	19	549	8620	7830	14900	5210	44700	38200	10700	25500	4480	–	–	–	–	–	–
B2	281	–	–	272	–	–	–	187	–	–	9440	3070	179	–	–	–	–	–
B3	234	–	–	254	184	–	314	416	–	–	5740	1060	283	2100	–	–	–	–
B4	338	–	30900	498	–	–	–	387	–	–	9450	1600	284	996	–	–	–	–
B5	35300	–	14800	46200	13100	43600	38400	23800	40000	36300	15900	34500	39300	43900	2730	4160	–	–
B6	20300	2580	20000	24200	28000	24400	21700	25500	18800	36300	12500	34700	16300	32500	6560	12600	8550	–
B7	45200	4500	40800	41000	46700	39500	27300	6610	27500	–	–	–	30000	–	4840	9580	–	7520
B8	46600	–	36800	48300	–	39800	45300	47000	30400	–	–	–	32800	–	7150	11900	–	–
B9	–	119	18000	46	–	–	511	176	–	–	–	–	327	–	–	–	–	327
B10	151	79	35000	287	–	–	–	121	–	–	–	–	–	–	–	–	–	–
